B1: HDV Ribozyme (parent)
chain: GGCCGGCAUGGUCCCAGCCUCCUCGCUGGCGCCGGCUGGGCAACAUUCCGAGGGGACCGUCCCCUCGGUAAUGGCGAAUGGGACCCA

Variants of: B1
Assay: self-cleavage, relative activity (ratio to wild type); higher = more cleavage; co-transcriptional

Variant | self-cleavage
G10U C49A | 0.554
U46G U69G | 0.776
C30G A51G | 0
U65C C86A | 0.673
C14A U79C | 0.173
C48A C75U | 0.339
U20A C66G | 0.107
A16U C58A | 1.09
C57G G82U | 0.317
G59A U65G | 0.801
G40C C84U | 0.0852
U47C A71C | 0.883
C57A C64G | 0.658
G11A U20A | 0.0623
U37C A77C | 0.415
G1A A56G | 0
G81A A83G | 0.236
G74U A83C | 0.271
C44G G67A | 0.65
G5C G76U | 0.378
G17C C85G | 0.185
C58G A78U | 0.277
C22G C84G | 0.0923
G31U G59A | 0.546

Variant | self-cleavage
C61A G76A | 1.02
G6U G35A | 0.208
G10A G52C | 0.812
G28U U46G | 0
C41G A43G | 0.262
C24A G73C | 0.211
C4G C41A | 0.162
G39U U79A | 0.148
C3A G11C | 0.0963
C13G G54C | 0.115
C64G U65C | 0.199
C13U U23A | 0.571
C33G G55C | 0.158
C33G G55A | 0.218
A56G | 0.995
G50C A70C | 0.517
U9A G35C | 0.44
G17A U79A | 0.627
G11C U65G | 0
A43C G68C | 0.283
A45U C63U | 0.856
U47A C61G | 0.639
G6A U27C | 0.268
G39A C48A | 0.609

Variant | self-cleavage
C63A U69G | 0.884
C14U C21U | 0.237
A56G G81A | 0.665
C24G C32A | 0
G73C G80U | 0.141
U20G C21A | 0.142
C32U G73U | 0.267
C15G U65G | 0.886
U23G U27C | 0.511
G38U C48A | 0.0978
G82U C85U | 0.451
G6C G50A | 0.225
C22G G40U | 0.104
C26G G55U | 0.975
G2U G17U | 0.0366
G29U A77C | 0.13
C58U C66A | 1.22
C14A C48U | 0.791
G10U C24A | 0.328
C18G G76U | 0.227
A42G A83U | 0.185
C30A U37A | 0
A56C C64U | 1.12
G5A G6C | 0.0536

Variant | self-cleavage
G68A U69A | 1
G1A C33U | 0.0594
U37C C66A | 1.25
G40C G82C | 0.188
G11A G76U | 0.623
G25A | 0.24
G2U A78U | 0
G5A A43U | 0.089
U27C A71C | 0.458
G54U A70U | 0.997
G53U G81U | 0.28
G11U G52C | 0.218
G1C U23A | 0.128
C22G G55A | 0.0723
G6U C30A | 0.0791
A16U C86A | 1.03
G25A C49G | 0.0755
G29U C36A | 0.187
G54A G81A | 0.511
C44A G52U | 0.913
C7G G54C | 0.415
G5C G25C | 0
C26U G59C | 0.935
G34C C36U | 0.0332

Variant | self-cleavage
C3G G5C | 1.5
U65G G80A | 0.288
C57G U60G | 0.95
C63A U72G | 0.369
C63A U72C | 0.532
C26U U60C | 0.95
G59A A78U | 0.346
C19A G55A | 0.0906
A83C C85A | 0.534
G67A C85G | 1.1
U79C | 0.438
C36A G52C | 0.138
U20G G28U | 0.0831
C3A C62U | 0.57
C49A G73C | 0.293
A16G U79G | 0.598
G53A C84G | 0.85
G40C U79G | 0.138
C13G C57U | 0.0426
C33G G59U | 0.111
G5C U12C | 0
C21U G31C | 0.0723
G31C U47C | 0.499
A42C A70U | 0.312

Variant | self-cleavage
G52C A71G | 0.884
G38C A87U | 0.252
C22A U47C | 0
G5U C64A | 0.499
C15G C26G | 0.431
G35A G52U | 0.513
C36U C85U | 0.88
C61A C63A | 0.689
C26G C86G | 0.886
U23C A70G | 0.95
U79C G80C | 0.208
C14A C85G | 0.906
G1A G10C | 0.35
G34C A77C | 0.17
C44G U46C | 0.748
C13G C48G | 0.0615
C63A U79C | 0.455
C26A U46A | 0.77
U20C G39U | 0.0386
G5A G31C | 0.095
C3G C66A | 0.585
A42C C63A | 0.277
G28C A56G | 0.107
G34A U72G | 0.0326

Variant | self-cleavage
U12C C85U | 0
G50C G52C | 0.554
C66U A83U | 0.43
C33A C49U | 0.212
U9G G35U | 0.653
C64G G67U | 0.365
C24U G74C | 0.332
G39U U46G | 0.222
C61G U72A | 0.457
C57G A71U | 0.91
G38A G81U | 0.176
C15U C19A | 0.128
C24U C62A | 0.471
C7G U65A | 0
U79C C86G | 0.284
G10U G50C | 0.817
A8G C15U | 0.7
U47A G82C | 0.489
U37A U69C | 0.415
C49G C85U | 0.912
G39A G55C | 0.443
C62A U69G | 1.03
G39C G80A | 0.0511
